Kd, koff and kon data for 2 molecules are collected here from PMC9426472, “Blockade of the Adenylate Cyclase Toxin Synergizes with Opsonizing Antibodies to Protect Mice against Bordetella pertussis” (mBio, 2022).

Experiment [1] concerns the target integrin αMβ2 (Homo sapiens) (UniProt P11215). Put plainly: SPR. As to conditions: cited from earlier work.
Experiment [2] has as its target T1, soluble, purified mouse αMβ2 integrin (ectodomain heterodimer) (mouse, UniProt P05555 17-1105; P11835 24-701).
T1 construct: also called CR3; MAC-1
As to the kind of experiment: SPR; Biacore X100; M1F5 Fab amine-coupled to both flow cells of a CM5 chip (~2,500 RU); ~10 RU RTX (10 nM) captured on flow cell 2 in each cycle; mouse αMβ2 at 6.13 to 200 nM flowed for 180 s, dissociation 600 s; 10 mM HEPES pH 7.4, 150 mM NaCl, 1 mM CaCl2, 1 mM MgCl2, 0.05% Tween 20; global 1:1 binding model. As to conditions: both partners purified. (In general: In SPR one partner is held on a chip, and binding of the other changes the refractive index at the surface.)

Usually Kd stands for the free concentration of one partner at which half of the binding sites on the other are occupied at equilibrium, for simple one-to-one binding. A word on the koff: it is the rate constant with which the complex falls apart. Lower therefore signals slow dissociation. In general, kon refers to the rate constant with which the complex forms.

T1 sequence (P05555 other isoform, or with tags, fused parts or gaps, chain 1 of 2): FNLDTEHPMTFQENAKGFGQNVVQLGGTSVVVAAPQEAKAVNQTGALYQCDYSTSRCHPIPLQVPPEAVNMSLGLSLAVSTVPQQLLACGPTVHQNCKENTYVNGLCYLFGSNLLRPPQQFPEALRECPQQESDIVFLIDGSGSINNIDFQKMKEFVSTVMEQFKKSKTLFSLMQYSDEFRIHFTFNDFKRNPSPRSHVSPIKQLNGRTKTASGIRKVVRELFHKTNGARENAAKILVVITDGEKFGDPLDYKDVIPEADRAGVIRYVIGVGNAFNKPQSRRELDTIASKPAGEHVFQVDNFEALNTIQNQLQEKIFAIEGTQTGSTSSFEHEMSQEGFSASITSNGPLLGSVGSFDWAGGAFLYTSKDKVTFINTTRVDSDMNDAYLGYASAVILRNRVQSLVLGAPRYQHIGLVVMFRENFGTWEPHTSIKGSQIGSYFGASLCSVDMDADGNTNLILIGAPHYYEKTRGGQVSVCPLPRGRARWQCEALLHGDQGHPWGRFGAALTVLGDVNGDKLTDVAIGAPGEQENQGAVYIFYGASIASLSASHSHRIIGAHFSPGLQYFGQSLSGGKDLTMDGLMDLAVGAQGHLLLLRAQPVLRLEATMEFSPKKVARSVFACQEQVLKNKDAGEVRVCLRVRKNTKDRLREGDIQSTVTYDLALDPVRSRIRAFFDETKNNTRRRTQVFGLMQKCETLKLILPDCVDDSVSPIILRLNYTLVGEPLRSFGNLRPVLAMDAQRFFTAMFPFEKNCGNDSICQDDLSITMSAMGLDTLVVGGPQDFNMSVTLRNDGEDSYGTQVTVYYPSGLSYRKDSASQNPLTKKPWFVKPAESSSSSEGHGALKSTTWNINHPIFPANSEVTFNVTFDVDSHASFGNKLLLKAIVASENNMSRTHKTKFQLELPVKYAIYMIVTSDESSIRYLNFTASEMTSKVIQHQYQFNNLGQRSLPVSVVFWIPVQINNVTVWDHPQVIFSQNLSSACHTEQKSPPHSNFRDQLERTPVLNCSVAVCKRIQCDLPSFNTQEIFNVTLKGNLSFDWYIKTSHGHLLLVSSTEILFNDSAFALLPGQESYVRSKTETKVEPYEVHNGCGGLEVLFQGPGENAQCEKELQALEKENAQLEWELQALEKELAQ
T1 sequence (P11835 other isoform, or with tags, fused parts or gaps, chain 2 of 2): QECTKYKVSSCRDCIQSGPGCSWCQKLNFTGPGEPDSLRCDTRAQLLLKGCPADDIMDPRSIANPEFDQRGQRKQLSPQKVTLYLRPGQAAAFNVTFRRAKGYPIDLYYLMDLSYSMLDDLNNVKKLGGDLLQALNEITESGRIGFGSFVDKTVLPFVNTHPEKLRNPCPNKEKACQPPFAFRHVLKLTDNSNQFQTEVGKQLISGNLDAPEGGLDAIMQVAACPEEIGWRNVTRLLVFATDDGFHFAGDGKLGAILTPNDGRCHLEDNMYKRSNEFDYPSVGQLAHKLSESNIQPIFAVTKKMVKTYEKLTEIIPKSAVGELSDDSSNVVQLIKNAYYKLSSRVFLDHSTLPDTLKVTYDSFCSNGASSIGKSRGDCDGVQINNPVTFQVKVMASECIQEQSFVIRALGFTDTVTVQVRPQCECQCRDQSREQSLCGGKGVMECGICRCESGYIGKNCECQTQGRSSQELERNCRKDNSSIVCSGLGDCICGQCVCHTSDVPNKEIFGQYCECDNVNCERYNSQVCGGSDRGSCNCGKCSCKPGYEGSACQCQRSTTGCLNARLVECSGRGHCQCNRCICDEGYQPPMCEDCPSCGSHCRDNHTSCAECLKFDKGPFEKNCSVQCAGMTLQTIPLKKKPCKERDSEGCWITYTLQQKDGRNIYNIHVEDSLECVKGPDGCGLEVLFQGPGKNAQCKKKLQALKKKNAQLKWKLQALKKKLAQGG

For “adenylate cyclase toxin RTX751 (from UniProt P0DKX7)”, the Kd in experiment [1] was 57 nM.

B1: RTX751 (RTX domain of the Bordetella pertussis adenylate cyclase toxin, residues 751 to 1706) (domain or fragment)
chain: ANSDGLRKMLADLQAGWNASSVIGVQTTEISKSALELAAITGNADNLKSVDVFVDRFVQGERVAGQPVVLDVAAGGIDIASRKGERPALTFITPLAAPGEEQRRRTKTGKSEFTTFVEIVGKQDRWRIRDGAADTTIDLAKVVSQLVDANGVLKHSIKLDVIGGDGDDVVLANASRIHYDGGAGTNTVSYAALGRQDSITVSADGERFNVRKQLNNANVYREGVATQTTAYGKRTENVQYRHVELARVGQLVEVDTLEHVQHIIGGAGNDSITGNAHDNFLAGGSGDDRLDGGAGNDTLVGGEGQNTVIGGAGDDVFLQDLGVWSNQLDGGAGVDTVKYNVHQPSEERLERMGDTGIHADLQKGTVEKWPALNLFSVDHVKNIENLHGSRLNDRIAGDDQDNELWGHDGNDTIRGRGGDDILRGGLGLDTLYGEDGNDIFLQDDETVSDDIDGGAGLDTVDYSAMIHPGRIVAPHEYGFGIEADLSREWVRKASALGVDYYDNVRNVENVIGTSMKDVLIGDAQANTLMGQGGDDTVRGGDGDDLLFGGDGNDMLYGDAGNDTLYGGLGDDTLEGGAGNDWFGQTQAREHDVLRGGDGVDTVDYSQTGAHAGIAAGRIGLGILADLGAGRVDKLGEAGSSAYDTVSGIENVVGTELADRITGDAQANVLRGAGGADVLAGGEGDDVLLGGDGDDQLSGDAGRDRLYGEAGDDWFFQDAANAGNLLDGGDGRDTVDFSGPGRGLDAGAKGVFLSLGKGFASLMDEPETSNVLRNIENAVGSARDDVLIGDAGANVLNGLAGNDVLSGGAGDDVLLGDEGSDLLSGDAGNDDLFGGQGDDTYLFGVGYGHDTIYESGGGHDTIRINAGADQLWFARQGNDLEIRILGTDDALTVHDWYRDADHRVEIIHAANQAVDQAGIEKLVEAMAQYPDPGAAAAAPPAARVPDTLMQSLAVNWR
notes: Cloned into the NheI and BamHI sites of pET28a+; The vector may add N-terminal residues (His tag, thrombin site) before the Strep tag; also called recombinant RTX751
In experiment [2], B1 had a Kd of 52 nM, a koff of 0.0028 s⁻¹ and a kon of 55000 M⁻¹ s⁻¹.
